Results: patent US20250304918A1 (Regeneron, published 2025)

T1: mouse CACNG1 (mouse, UniProt O70578 1-223)
T1 construct: In the functional entries it is the endogenous protein on muscle of D2-mdx mice or on C2C12 myotubes
T1 sequence: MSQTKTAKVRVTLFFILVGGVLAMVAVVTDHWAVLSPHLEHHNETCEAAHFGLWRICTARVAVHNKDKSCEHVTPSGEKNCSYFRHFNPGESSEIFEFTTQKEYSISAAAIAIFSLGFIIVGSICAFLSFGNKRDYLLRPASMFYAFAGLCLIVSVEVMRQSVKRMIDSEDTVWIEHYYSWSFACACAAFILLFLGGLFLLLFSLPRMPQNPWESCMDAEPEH


Assays:
[1] = biological target: T1, mouse CACNG1; assay: no binding assay described; definition of the label
[2] = biological target: T2, human CACNG1 (Calcium Voltage-Gaged Auxiliary Subunit Gamma 1) (human, UniProt Q06432 1-222); assay: no binding assay described; descriptor in figure legend
T2 construct: In the transduction experiments it was expressed on 293 cells, human myotubes or muscle of humanized mice; also called hCACNG1; human CACNG1 protein

[3] = biological target: T1, mouse CACNG1; assay: as above

T2 sequence (Q06432 whole entry): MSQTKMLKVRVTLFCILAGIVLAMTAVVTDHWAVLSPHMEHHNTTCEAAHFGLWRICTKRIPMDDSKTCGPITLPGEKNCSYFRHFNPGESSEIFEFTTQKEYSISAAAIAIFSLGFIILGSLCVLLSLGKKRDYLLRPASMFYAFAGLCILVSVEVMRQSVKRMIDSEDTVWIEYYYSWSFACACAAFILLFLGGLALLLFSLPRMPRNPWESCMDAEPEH

Binder | binding result [1] | binding result [2] | binding result [3]
CACNG1 mAb #5 (antibody, V domains shown, also called Antibody Designation 5; 14574/10783) VH: QVQLVESGGGVVQPGTSLRLSCAASGFTFSSYGMHWVRQAPGKGLEWVAVIWIDGSNKYYADSVKGRFTISRDNSKNTLYLQMNSLRAEDTAVYYCARRGGIVVAAPFDYWGQGTLVTVSS VL: not shown | no binding |  | 
CACNG1 mAb #1 (antibody, V domains shown, On AAV particles the heavy chain was in a hIgG4US backbone, fused at its C-terminus to SpyCatcher and joined to SpyTag on the capsid; a Fab form was also used; also called anti-hCACNG1 mAb #1; anti-CACNG1 mAb #1) VH: QVQLVESGGGVVQPGRSLRLSCTASGITFRNYGMHWVRQAPGKGLEWVAVMWYDGSNKYYADSVKGRFTISGDNSKVYLQMNSLRAEDTAVYYCARRGTIRTAAPFDYWGQGTLVTVSS VL: not shown | no binding |  | 
CACNG1 mAb #3 (antibody, V domains shown, On AAV particles the heavy chain was fused at its C-terminus to SpyCatcher; also called Antibody Designation 3; 14572/10717) VH: QVQLVESGGGVVQPGRSLRLSCAASGFTFSTYGMHWVRQAPGKGLEWVAVIWHDGSDKYYVDSVKGRFSIARDNSKNTLYLQMNSLRVEDTGIYYCARRGIRGTVFDHWGLGTLVTVSS VL: DIQMTQSPSTLSASVGDRVTLTCRASQSISNKLAWYQQKPGKAPNLLIYKASNLESGVPSRFSGSGSGTEFTLTISSLQPDDFATYYCQQYNSYSWTFGQGTKVEIK |  | binds | binds
